Laboratory results published in patent publication CN117736314A (ADVACCINE SUZHOU BIOPHARMACEUTICAL CO LTD; UNIV FUDAN, dated 2024).

Target: SARS-CoV-2野生型(WT) S蛋白 (病毒颗粒上) (SARS-CoV-2, UniProt P0DTC2 14-1273)
Test: cell-based or functional assay

B1: 抗体09C7 (antibody, V domains shown)
VH: QVTLRESGPTLVKPKQTLTLTCTFSGFSLSTPGGGVGWIRQPPGKALEWLALIYWDDDKRYSPSLKSSLTITKDTSKNQVVLTMTNMDPVDTATYYCARLTAADTIFDCWGQGTLVTV
VL: QSALTQPASVSGSPGLSITISCTATSSDVGAYNYVSWYQQHPGQAPKLMIYDVSKRPSGVSNRFSGSKSANTASLTISGLQAEDEADYYCSSYTTTSVVFGGGTKLTVL
IC50, pseudovirus neutralisation (luciferase, Huh-7 cells): 4 ng/mL
